Data as given in the supplement of paper PMC5998384.

Columns and labels:
HeLa Kyoto [1] = test: melting temperature (median over replicates), in situ; higher = more thermally stable
HeLa Kyoto [2] = test: solubility in G1/S (NP-40 vs SDS abundance) (log2 ratio); higher = more soluble; conditions: cell cycle stage: G1/S
HeLa Kyoto [3] = test: thermal stability score vs G1/S (z-score of summed log2 fold changes over temperatures); higher = more thermally stable than in G1/S
HeLa Kyoto [4] = test: solubility change mitosis vs G1/S (difference of NP-40 vs SDS log2 ratios) (log2 ratio difference); higher = more soluble in mitosis
[5] = cell cycle stage: early G1 (4.5 h after nocodazole release)
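Wherever melting temperature (median over replicates), in situ is given: HeLa Kyoto cells synchronized by double thymidine or nocodazole block, proteins quantified by TMT10plex mass spectrometry, three independent biological replicates.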
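Wherever solubility change mitosis vs G1/S (difference of NP-40 vs SDS log2 ratios) is given: synchronized HeLa Kyoto cells (double thymidine block for G1/S, nocodazole release for mitosis), protein amounts in NP-40 versus SDS lysates quantified by mass spectrometry, three biological replicates.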
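Wherever solubility in G1/S (NP-40 vs SDS abundance) is given: HeLa Kyoto cells arrested at G1/S by double thymidine block, proteins quantified by TMT10plex mass spectrometry in mild NP-40 versus SDS extracts, three biological replicates.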
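Wherever thermal stability score vs G1/S (z-score of summed log2 fold changes over temperatures) is given: synchronized HeLa Kyoto cells, proteins quantified by TMT10plex mass spectrometry, three biological replicates, mitosis taken 0.5 h after nocodazole release, G1/S directly after double thymidine block.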

Sequence | melting temperature (HeLa Kyoto [1]; cell cycle stage: G1/S) [°C] | melting temperature (HeLa Kyoto [1]; cell cycle stage: mitosis) [°C] | solubility in G1/S (log2) (HeLa Kyoto [2]) | thermal stability score (HeLa Kyoto [3]; [5]) | thermal stability score (HeLa Kyoto [3]; cell cycle stage: mitosis) | solubility change mitosis (log2) (HeLa Kyoto [4])
MKYILVTGGVISGIGKGIIASSVGTILKSCGLHVTSIKIDPYINIDAGTFSPYEHGEVFVLDDGGEVDLDLGNYERFLDIRLTKDNNLTTGKIYQYVINKERKGDYLGKTVQVVPHITDAIQEWVMRQALIPVDEDGLEPQVCVIELGGTVGDIESMPFIEAFRQFQFKVKRENFCNIHVSLVPQPSSTGEQKTKPTQNSVRELRGLGLSPDLVVCRCSNPLDTSVKEKISMFCHVEPEQVICVHDVSSIYRVPLLLEEQGVVDYFLRRLDLPIERQPRKMLMKWKEMADRYDRLLETCSIALVGKYTKFSDSYASVIKALEHSALAINHKLEIKYIDSADLEPITSQEEPVRYHEAWQKLCSAHGVLVPGGFGVRGTEGKIQAIAWARNQKKPFLGVCLGMQLAVVEFSRNVLGWQDANSTEFDPTTSHPVVVDMPEHNPGQMGGTMRLGKRRTLFQTKNSVMRKLYGDADYLEERHRHRFEVNPVWKKCLEEQGLKFVGQDVEGERMEIVELEDHPFFVGVQYHPEFLSRPIKPSPPYFGLLLASVGRLSHYLQKGCRLSPRDTYSDRSGSSSPDSEITELKFPSINHD [CTPS1] | 55.3 | 55.3 | -0.00383 | 0.505 | -2.34 | -0.0782
MLADLGLIGTIGEDDEVPVEPESDSGDEEEEGPIVLGRRQKALGKNRSADFNPDFVFTEKEGTYDGSWALADVMSQLKKKRAATTLDEKIEKVRKKRKTEDKEAKSGKLEKEKEAKEGSEPKEQEDLQENDEEGSEDEASETDYSSADENILTKADTLKVKDRKKKKKKGQEAGGFFEDASQYDENLSFQDMNLSRPLLKAITAMGFKQPTPIQKACIPVGLLGKDICACAATGTGKTAAFALPVLERLIYKPRQAPVTRVLVLVPTRELGIQVHSVTRQLAQFCNITTCLAVGGLDVKSQEAALRAAPDILIATPGRLIDHLHNCPSFHLSSIEVLILDEADRMLDEYFEEQMKEIIRMCSHHRQTMLFSATMTDEVKDLASVSLKNPVRIFVNSNTDVAPFLRQEFIRIRPNREGDREAIVAALLTRTFTDHVMLFTQTKKQAHRMHILLGLMGLQVGELHGNLSQTQRLEALRRFKDEQIDILVATDVAARGLDIEGVKTVINFTMPNTIKHYVHRVGRTARAGRAGRSVSLVGEDERKMLKEIVKAAKAPVKARILPQDVILKFRDKIEKMEKDVYAVLQLEAEEKEMQQSEAQINTAKRLLEKGKEAVVQEPERSWFQTKEERKKEKIAKALQEFDLALRGKKKRKKFMKDAKKKGEMTAEERSQFEILKAQMFAERLAKRNRRAKRARAMPEEEPVRGPAKKQKQGKKSVFDEELTNTSKKALKQYRAGPSFEERKQLGLPHQRRGGNFKSKSRYKRRK [DDX27] | 52.4 | 52.2 | -2.35 | 1.57 | 2.15 | 1.15
MLALISRLLDWFRSLFWKEEMELTLVGLQYSGKTTFVNVIASGQFSEDMIPTVGFNMRKVTKGNVTIKIWDIGGQPRFRSMWERYCRGVNAIVYMIDAADREKIEASRNELHNLLDKPQLQGIPVLVLGNKRDLPNALDEKQLIEKMNLSAIQDREICCYSISCKEKDNIDITLQWLIQHSKSRRS [ARL8B] | 55.2 | 56 | -0.0397 | -1.93 | -1.85 | -0.232
MLCSLLLCECLLLVAGYAHDDDWIDPTDMLNYDAASGTMRKSQAKYGISGEKDVSPDLSCADEISECYHKLDSLTYKIDECEKKKREDYESQSNPVFRRYLNKILIEAGKLGLPDENKGDMHYDAEIILKRETLLEIQKFLNGEDWKPGALDDALSDILINFKFHDFETWKWRFEDSFGVDPYNVLMVLLCLLCIVVLVATELWTYVRWYTQLRRVLIISFLFSLGWNWMYLYKLAFAQHQAEVAKMEPLNNVCAKKMDWTGSIWEWFRSSWTYKDDPCQKYYELLLVNPIWLVPPTKALAVTFTTFVTEPLKHIGKGTGEFIKALMKEIPALLHLPVLIIMALAILSFCYGAGKSVHVLRHIGGPESEPPQALRPRDRRRQEEIDYRPDGGAGDADFHYRGQMGPTEQGPYAKTYEGRREILRERDVDLRFQTGNKSPEVLRAFDVPDAEAREHPTVVPSHKSPVLDTKPKETGGILGEGTPKESSTESSQSAKPVSGQDTSGNTEGSPAAEKAQLKSEAAGSPDQGSTYSPARGVAGPRGQDPVSSPCG [CLCC1] | 56 | 58.6 | -0.212 | -0.638 | 1.19 | -0.123
MLCVGRLGGLGARAAALPPRRAGRGSLEAGIRARRVSTSWSPVGAAFNVKPQGSRLDLFGERRGLFGVPELSAPEGFHIAQEKALRKTELLVDRACSTPPGPQTVLIFDELSDSLCRVADLADFVKIAHPEPAFREAAEEACRSIGTMVEKLNTNVDLYQSLQKLLADKKLVDSLDPETRRVAELFMFDFEISGIHLDKEKRKRAVDLNVKILDLSSTFLMGTNFPNKIEKHLLPEHIRRNFTSAGDHIIIDGLHAESPDDLVREAAYKIFLYPNAGQLKCLEELLSSRDLLAKLVGYSTFSHRALQGTIAKNPETVMQFLEKLSDKLSERTLKDFEMIRGMKMKLNPQNSEVMPWDPPYYSGVIRAERYNIEPSLYCPFFSLGACMEGLNILLNRLLGISLYAEQPAKGEVWSEDVRKLAVVHESEGLLGYIYCDFFQRADKPHQDCHFTIRGGRLKEDGDYQLPVVVLMLNLPRSSRSSPTLLTPSMMENLFHEMGHAMHSMLGRTRYQHVTGTRCPTDFAEVPSILMEYFANDYRVVNQFARHYQTGQPLPKNMVSRLCESKKVCAAADMQLQVFYATLDQIYHGKHPLRNSTTDILKETQEKFYGLPYVPNTAWQLRFSHLVGYGARYYSYLMSRAVASMVWKECFLQDPFNRAAGERYRREMLAHGGGREPMLMVEGMLQKCPSVDDFVSALVSDLDLDFETFLMDSE [MIPEP] | 51.2 | 50.4 | -0.0439 | 0.154 | 0.0672 | -0.0647
MLFNSVLRQPQLGVLRNGWSSQYPLQSLLTGYQCSGNDEHTSYGETGVPVPPFGCTFSSAPNMEHVLAVANEEGFVRLYNTESQSFRKKCFKEWMAHWNAVFDLAWVPGELKLVTAAGDQTAKFWDVKAGELIGTCKGHQCSLKSVAFSKFEKAVFCTGGRDGNIMVWDTRCNKKDGFYRQVNQISGAHNTSDKQTPSKPKKKQNSKGLAPSVDFQQSVTVVLFQDENTLVSAGAVDGIIKVWDLRKNYTAYRQEPIASKSFLYPGSSTRKLGYSSLILDSTGSTLFANCTDDNIYMFNMTGLKTSPVAIFNGHQNSTFYVKSSLSPDDQFLVSGSSDEAAYIWKVSTPWQPPTVLLGHSQEVTSVCWCPSDFTKIATCSDDNTLKIWRLNRGLEEKPGGDKLSTVGWASQKKKESRPGLVTVTSSQSTPAKAPRAKCNPSNSSPSSAACAPSCAGDLPLPSNTPTFSIKTSPAKARSPINRRGSVSSVSPKPPSSFKMSIRNWVTRTPSSSPPITPPASETKIMSPRKALIPVSQKSSQAEACSESRNRVKRRLDSSCLESVKQKCVKSCNCVTELDGQVENLHLDLCCLAGNQEDLSKDSLGPTKSSKIEGAGTSISEPPSPISPYASESCGTLPLPLRPCGEGSEMVGKENSSPENKNWLLAMAAKRKAENPSPRSPSSQTPNSRRQSGKKLPSPVTITPSSMRKICTYFHRKSQEDFCGPEHSTEL [DTL] | 50.4 | 50.1 | -0.00542 | -1.36 | -1.25 | -0.0846
MLGARAWLGRVLLLPRAGAGLAASRRGSSSRDKDRSATVSSSVPMPAGGKGSHPSSTPQRVPNRLIHEKSPYLLQHAYNPVDWYPWGQEAFDKARKENKPIFLSVGYSTCHWCHMMEEESFQNEEIGRLLSEDFVSVKVDREERPDVDKVYMTFVQATSSGGGWPMNVWLTPNLQPFVGGTYFPPEDGLTRVGFRTVLLRIREQWKQNKNTLLENSQRVTTALLARSEISVGDRQLPPSAATVNNRCFQQLDEGYDEEYGGFAEAPKFPTPVILSFLFSYWLSHRLTQDGSRAQQMALHTLKMMANGGIRDHVGQGFHRYSTDRQWHVPHFEKMLYDQAQLAVAYSQAFQLSGDEFYSDVAKGILQYVARSLSHRSGGFYSAEDADSPPERGQRPKEGAYYVWTVKEVQQLLPEPVLGATEPLTSGQLLMKHYGLTEAGNISPSQDPKGELQGQNVLTVRYSLELTAARFGLDVEAVRTLLNSGLEKLFQARKHRPKPHLDSKMLAAWNGLMVSGYAVTGAVLGQDRLINYATNGAKFLKRHMFDVASGRLMRTCYTGPGGTVEHSNPPCWGFLEDYAFVVRGLLDLYEASQESAWLEWALRLQDTQDKLFWDSQGGGYFCSEAELGAGLPLRLKDDQDGAEPSANSVSAHNLLRLHGFTGHKDWMDKCVCLLTAFSERMRRVPVALPEMVRALSAQQQTLKQIVICGDRQAKDTKALVQCVHSVYIPNKVLILADGDPSSFLSRQLPFLSTLRRLEDQATAYVCENQACSVPITDPCELRKLLHP [SPATA20] | 51.6 | 52.6 | 0.267 | 0.594 | 0.85 | -0.304
MLGKGVVGGGGGTKAPKPSFVSYVRPEEIHTNEKEVTEKEVTLHLLPGEQLLCEASTVLKYVQEDSCQHGVYGRLVCTDFKIAFLGDDESALDNDETQFKNKVIGENDITLHCVDQIYGVFDEKKKTLFGQLKKYPEKLIIHCKDLRVFQFCLRYTKEEEVKRIVSGIIHHTQAPKLLKRLFLFSYATAAQNNTVTDPKNHTVMFDTLKDWCWELERTKGNMKYKAVSVNEGYKVCERLPAYFVVPTPLPEENVQRFQGHGIPIWCWSCHNGSALLKMSALPKEQDDGILQIQKSFLDGIYKTIHRPPYEIVKTEDLSSNFLSLQEIQTAYSKFKQLFLIDNSTEFWDTDIKWFSLLESSSWLDIIRRCLKKAIEITECMEAQNMNVLLLEENASDLCCLISSLVQLMMDPHCRTRIGFQSLIQKEWVMGGHCFLDRCNHLRQNDKEEVPVFLLFLDCVWQLVHQHPPAFEFTETYLTVLSDSLYIPIFSTFFFNSPHQKDTNMGREGQDTQSKPLNLLTVWDWSVQFEPKAQTLLKNPLYVEKPKLDKGQRKGMRFKHQRQLSLPLTQSKSSPKRGFFREETDHLIKNLLGKRISKLINSSDELQDNFREFYDSWHSKSTDYHGLLLPHIEGPEIKVWAQRYLRWIPEAQILGGGQVATLSKLLEMMEEVQSLQEKIDERHHSQQAPQAEAPCLLRNSARLSSLFPFALLQRHSSKPVLPTSGWKALGDEDDLAKREDEFVDLGDV [MTMR12] | 56.1 | 56 | -0.0977 | -0.744 | -0.447 | -0.11
MLGVRCLLRSVRFCSSAPFPKHKPSAKLSVRDALGAQNASGERIKIQGWIRSVRSQKEVLFLHVNDGSSLESLQVVADSGLDSRELNFGSSVEVQGQLIKSPSKRQNVELKAEKIKVIGNCDAKDFPIKYKERHPLEYLRQYPHFRCRTNVLGSILRIRSEATAAIHSFFKDSGFVHIHTPIITSNDSEGAGELFQLEPSGKLKVPEENFFNVPAFLTVSGQLHLEVMSGAFTQVFTFGPTFRAENSQSRRHLAEFYMIEAEISFVDSLQDLMQVIEELFKATTMMVLSKCPEDVELCHKFIAPGQKDRLEHMLKNNFLIISYTEAVEILKQASQNFTFTPEWGADLRTEHEKYLVKHCGNIPVFVINYPLTLKPFYMRDNEDGPQHTVAAVDLLVPGVGELFGGGLREERYHFLEERLARSGLTEVYQWYLDLRRFGSVPHGGFGMGFERYLQCILGVDNIKDVIPFPRFPHSCLL [NARS2] | 49.7 | 49.8 | -0.141 | -0.169 | 1.1 | -0.147
MLKAVILIGGPQKGTRFRPLSFEVPKPLFPVAGVPMIQHHIEACAQVPGMQEILLIGFYQPDEPLTQFLEAAQQEFNLPVRYLQEFAPLGTGGGLYHFRDQILAGSPEAFFVLNADVCSDFPLSAMLEAHRRQRHPFLLLGTTANRTQSLNYGCIVENPQTHEVLHYVEKPSTFISDIINCGIYLFSPEALKPLRDVFQRNQQDGQLEDSPGLWPGAGTIRLEQDVFSALAGQGQIYVHLTDGIWSQIKSAGSALYASRLYLSRYQDTHPERLAKHTPGGPWIRGNVYIHPTAKVAPSAVLGPNVSIGKGVTVGEGVRLRESIVLHGATLQEHTCVLHSIVGWGSTVGRWARVEGTPSDPNPNDPRARMDSESLFKDGKLLPAITILGCRVRIPAEVLILNSIVLPHKELSRSFTNQIIL [GMPPA] | 54.4 | 53 | 0.0728 | 0.0726 | -3.01 | -0.00526
